The values below come from paper PMC6084945, “SURGE complex of Plasmodium falciparum in the rhoptry-neck (SURFIN4.2-RON4-GLURP) contributes to merozoite invasion” (PLoS ONE, 2018).

The series deals with the molecule itself. In words: non-reducing SDS-PAGE; purified recombinant protein eluted from the nickel resin, Coomassie stained gel with and without 2-mercaptoethanol; dimer size band under non-reducing conditions.

B1: recombinant SURFIN4.2 extracellular domain (position 1-746), N-terminal 6x histidine-tagged (domain or fragment)
chain: MLFVVELDSRLEKSADKRISVERFRKIFEIYVEDKLEELKRSGSEKYDKDCRDFNYFIDDVKDVFINNDLVKIPVKVRKSIWETHVDKNLPKLMKNTTSCKCIRKEHNYNKEYRDMTRTLEDFCEEKTRKLEIIYQKDYDESLYVNFNEWINKKKEDILKEYEKLSNKDKYKHLLKISETCDLNHVDKLFLNISSEDMKKMKEDVKKQHLEVKVRPPVNEPIDDRGKEDALSRGGKSIILNKEENSPTEEITTEYNPVSEMGVGTTIAHSEPGPKTVNTEVRNVLRSDGKISDQGSQKSPPKELSNKQMTPAQRKNVPHFVERRGYGNSHVRGNALKKISNGDDNYKSPSSNYIEVDCAEDKYFLLEDGTNQSENSCKTKYNYFVSNDYDGTGSAIYSTDQVPSREEIKSPDSLSTLDARGSTHNLNVSNEGNPLEGGEEKNNVKISEQNGRNLESSVGTDKGSDKNEEEVAATCDPNDRNCFDGRYINVDYIRGLLKGKRSGSDGRSNIKHIISNNFDDSNMIFPTFNFDFDILKAEEEVLPVNNSDIIYGHEEVEETTQEGASIFEKHSHTSSQQNDSSASGNKYRMLSTTMELPNQQEVFGLYSPVSRTLDSAMSFLRSIISLSSAPVSRSEGQSKESKRVEISTTVQDPIGYRTSPLQMNAHSVGAGINVSSILSMLGLSSGQVRRSGGQGSETYIVGTSQSGFHKNEVIPSIKDKSGKTQIVSNEKGGIFSKGITSMMSSL
On to B1, for which the “stoichiometry N” value turned out to be 2.
